# Numbered stars: 1 amine (or outer) side, 2 acyl side, 3 side chain; on linkers, the order of the positions; unused ones are H or OH. Bridge positions count the residues as written; N and C are the ends. Side chains are listed from the residue outwards. Ends that are not written are not given here. * marks the point of attachment. C20 diacid = O=C(O)CCCCCCCCCCCCCCCCCCC(=O)*; γGlu = O=C(O)[C@H](CCC(=O)[*:2])N[*:1]; AEEA = NCCOCCOCC(=O)O
# T1: human calcitonin receptor (human, UniProt P30988 25-474)
# T1 construct: whole, on cells; also called hCTR; hCT
# T1 sequence (looked up): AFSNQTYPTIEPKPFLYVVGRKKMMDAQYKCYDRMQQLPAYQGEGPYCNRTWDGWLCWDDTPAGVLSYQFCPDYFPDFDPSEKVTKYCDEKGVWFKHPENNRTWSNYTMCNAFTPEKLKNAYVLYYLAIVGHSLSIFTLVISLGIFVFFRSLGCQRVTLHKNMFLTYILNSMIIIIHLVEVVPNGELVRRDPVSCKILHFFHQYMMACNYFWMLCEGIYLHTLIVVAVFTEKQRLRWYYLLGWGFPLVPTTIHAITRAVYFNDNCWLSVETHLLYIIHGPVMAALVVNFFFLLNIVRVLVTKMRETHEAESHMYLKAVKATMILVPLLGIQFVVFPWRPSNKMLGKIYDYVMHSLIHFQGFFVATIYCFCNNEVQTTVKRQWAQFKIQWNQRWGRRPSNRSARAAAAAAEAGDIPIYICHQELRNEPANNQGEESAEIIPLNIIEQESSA
# Target: T1, human calcitonin receptor
# Assay: SPA competition with 125I-calcitonin, membranes of BHK hCTR cells (Assay VII)
# Procedure: Membranes were prepared in the following way; the cells were rinsed with PBS and incubated with Versene for approximately 5 min before harvesting. The cells were flushed with PBS and the cell-suspension was centrifuged for 5 min at 1000 rpm. Cells were homogenized (Ultrathurrax) in a buffer containing 20 mM Na-HEPES and 10 mM EDTA (pH 7.4) and centrifuged at 20.000 rpm for 15 min. The resulting pellet was resuspended, homogenized and centrifuged (20.000 rpm, 15 min) in a buffer containing 20 mM Na-HEPES and 0.1 mM EDTA (pH 7.4, buffer 2). The resulting pellet was resuspended in buffer 2 and protein concentration was measured (BCA protein Assay, Pierce). The homogenate was kept cold during the whole procedure. The membranes were kept at −80° C. until use. Assay was performed in a 384 well Optiplate (PerkinElmer) in a total volume of 40 ul. Membranes were mixed with SPA beads. Final concentration of membranes 35 ng/μL final and Final concentration of SPA beads was 0.05 mg/well. Test-compounds were dissolved in DMSO and further diluted in assay buffer (50 mM Hepes, pH 7.4, 1 mM CaCl2, 5 mM MgCl₂, 0.1% OA and 0.02% Tween20). […] The final mixture was incubated for 120 min with shaking at 400 rpm at 25° C. prior to centrifugation (1500 rpm, 10 min). Samples were analyzed on TopCounter™ (Packard). The […] was calculated using (one site binding competition analysis) GraphPad Prism5 as a measure of receptor affinity.
row,Binder,IC50
1,"K([AEEA-γGlu-C20 diacid])CNTATCATQRLAAFLRHSSPNFGAIPSSTPVGSNTY-NH2 (disulfide 2-7; N-terminus assumed; SMILES CC[C@H](C)[C@H](NC(=O)[C@H](C)NC(=O)CNC(=O)[C@H](Cc1ccccc1)NC(=O)[C@H](CC(N)=O)NC(=O)[C@@H]1CCCN1C(=O)[C@H](CO)NC(=O)[C@H](CO)NC(=O)[C@H](Cc1c[nH]cn1)NC(=O)[C@H](CCCNC(=N)N)NC(=O)[C@H](CC(C)C)NC(=O)[C@H](Cc1ccccc1)NC(=O)[C@H](C)NC(=O)[C@H](C)NC(=O)[C@H](CC(C)C)NC(=O)[C@H](CCCNC(=N)N)NC(=O)[C@H](CCC(N)=O)NC(=O)[C@@H](NC(=O)[C@H](C)NC(=O)[C@@H]1CSSC[C@H](NC(=O)[C@@H](N)CCCCNC(=O)COCCOCCNC(=O)CC[C@H](NC(=O)CCCCCCCCCCCCCCCCCCC(=O)O)C(=O)O)C(=O)N[C@@H](CC(N)=O)C(=O)N[C@@H]([C@@H](C)O)C(=O)N[C@@H](C)C(=O)N[C@@H]([C@@H](C)O)C(=O)N1)[C@@H](C)O)C(=O)N1CCC[C@H]1C(=O)N[C@@H](CO)C(=O)N[C@@H](CO)C(=O)N[C@H](C(=O)N1CCC[C@H]1C(=O)N[C@H](C(=O)NCC(=O)N[C@@H](CO)C(=O)N[C@@H](CC(N)=O)C(=O)N[C@H](C(=O)N[C@@H](Cc1ccc(O)cc1)C(N)=O)[C@@H](C)O)C(C)C)[C@@H](C)O, also called compound 72)",42.4 nM
2,"K([AEEA-γGlu-C20 diacid])CNTATCATQRLANFLRHSSPNFGAIPPSTNVGPNTY-NH2 (disulfide 2-7; N-terminus assumed; SMILES CC[C@H](C)[C@H](NC(=O)[C@H](C)NC(=O)CNC(=O)[C@H](Cc1ccccc1)NC(=O)[C@H](CC(N)=O)NC(=O)[C@@H]1CCCN1C(=O)[C@H](CO)NC(=O)[C@H](CO)NC(=O)[C@H](Cc1c[nH]cn1)NC(=O)[C@H](CCCNC(=N)N)NC(=O)[C@H](CC(C)C)NC(=O)[C@H](Cc1ccccc1)NC(=O)[C@H](CC(N)=O)NC(=O)[C@H](C)NC(=O)[C@H](CC(C)C)NC(=O)[C@H](CCCNC(=N)N)NC(=O)[C@H](CCC(N)=O)NC(=O)[C@@H](NC(=O)[C@H](C)NC(=O)[C@@H]1CSSC[C@H](NC(=O)[C@@H](N)CCCCNC(=O)COCCOCCNC(=O)CC[C@H](NC(=O)CCCCCCCCCCCCCCCCCCC(=O)O)C(=O)O)C(=O)N[C@@H](CC(N)=O)C(=O)N[C@@H]([C@@H](C)O)C(=O)N[C@@H](C)C(=O)N[C@@H]([C@@H](C)O)C(=O)N1)[C@@H](C)O)C(=O)N1CCC[C@H]1C(=O)N1CCC[C@H]1C(=O)N[C@@H](CO)C(=O)N[C@H](C(=O)N[C@@H](CC(N)=O)C(=O)N[C@H](C(=O)NCC(=O)N1CCC[C@H]1C(=O)N[C@@H](CC(N)=O)C(=O)N[C@H](C(=O)N[C@@H](Cc1ccc(O)cc1)C(N)=O)[C@@H](C)O)C(C)C)[C@@H](C)O, also called compound 55)",2.17 nM
3,"K([AEEA-γGlu-C20 diacid])CNTATCATQRLANFLRHSSPNFGAIPSPTPVGSNTY-NH2 (disulfide 2-7; N-terminus assumed; SMILES CC[C@H](C)[C@H](NC(=O)[C@H](C)NC(=O)CNC(=O)[C@H](Cc1ccccc1)NC(=O)[C@H](CC(N)=O)NC(=O)[C@@H]1CCCN1C(=O)[C@H](CO)NC(=O)[C@H](CO)NC(=O)[C@H](Cc1c[nH]cn1)NC(=O)[C@H](CCCNC(=N)N)NC(=O)[C@H](CC(C)C)NC(=O)[C@H](Cc1ccccc1)NC(=O)[C@H](CC(N)=O)NC(=O)[C@H](C)NC(=O)[C@H](CC(C)C)NC(=O)[C@H](CCCNC(=N)N)NC(=O)[C@H](CCC(N)=O)NC(=O)[C@@H](NC(=O)[C@H](C)NC(=O)[C@@H]1CSSC[C@H](NC(=O)[C@@H](N)CCCCNC(=O)COCCOCCNC(=O)CC[C@H](NC(=O)CCCCCCCCCCCCCCCCCCC(=O)O)C(=O)O)C(=O)N[C@@H](CC(N)=O)C(=O)N[C@@H]([C@@H](C)O)C(=O)N[C@@H](C)C(=O)N[C@@H]([C@@H](C)O)C(=O)N1)[C@@H](C)O)C(=O)N1CCC[C@H]1C(=O)N[C@@H](CO)C(=O)N1CCC[C@H]1C(=O)N[C@H](C(=O)N1CCC[C@H]1C(=O)N[C@H](C(=O)NCC(=O)N[C@@H](CO)C(=O)N[C@@H](CC(N)=O)C(=O)N[C@H](C(=O)N[C@@H](Cc1ccc(O)cc1)C(N)=O)[C@@H](C)O)C(C)C)[C@@H](C)O, also called compound 54)",4.38 nM

# The remaining lines, values ahead:
row,IC50,Binder
1,56 nM,"K([AEEA-γGlu-C20 diacid])CNTATCATQRLARFLRHSSPNFGAIPSSTPVGSNTY-NH2 (disulfide 2-7; N-terminus assumed; SMILES CC[C@H](C)[C@H](NC(=O)[C@H](C)NC(=O)CNC(=O)[C@H](Cc1ccccc1)NC(=O)[C@H](CC(N)=O)NC(=O)[C@@H]1CCCN1C(=O)[C@H](CO)NC(=O)[C@H](CO)NC(=O)[C@H](Cc1c[nH]cn1)NC(=O)[C@H](CCCNC(=N)N)NC(=O)[C@H](CC(C)C)NC(=O)[C@H](Cc1ccccc1)NC(=O)[C@H](CCCNC(=N)N)NC(=O)[C@H](C)NC(=O)[C@H](CC(C)C)NC(=O)[C@H](CCCNC(=N)N)NC(=O)[C@H](CCC(N)=O)NC(=O)[C@@H](NC(=O)[C@H](C)NC(=O)[C@@H]1CSSC[C@H](NC(=O)[C@@H](N)CCCCNC(=O)COCCOCCNC(=O)CC[C@H](NC(=O)CCCCCCCCCCCCCCCCCCC(=O)O)C(=O)O)C(=O)N[C@@H](CC(N)=O)C(=O)N[C@@H]([C@@H](C)O)C(=O)N[C@@H](C)C(=O)N[C@@H]([C@@H](C)O)C(=O)N1)[C@@H](C)O)C(=O)N1CCC[C@H]1C(=O)N[C@@H](CO)C(=O)N[C@@H](CO)C(=O)N[C@H](C(=O)N1CCC[C@H]1C(=O)N[C@H](C(=O)NCC(=O)N[C@@H](CO)C(=O)N[C@@H](CC(N)=O)C(=O)N[C@H](C(=O)N[C@@H](Cc1ccc(O)cc1)C(N)=O)[C@@H](C)O)C(C)C)[C@@H](C)O, also called compound 64)"
2,5.38 nM,"K([AEEA-γGlu-C20 diacid])CNTATCATQRLANFLRHSSPNFGAIPPSTPVGSNTY-NH2 (disulfide 2-7, also called compound 53)"
3,25.3 nM,"K([AEEA-γGlu-C20 diacid])CNTATCATQRLANFLRHSSPNFGAIPSSTNVGSETY-NH2 (disulfide 2-7; N-terminus assumed; SMILES CC[C@H](C)[C@H](NC(=O)[C@H](C)NC(=O)CNC(=O)[C@H](Cc1ccccc1)NC(=O)[C@H](CC(N)=O)NC(=O)[C@@H]1CCCN1C(=O)[C@H](CO)NC(=O)[C@H](CO)NC(=O)[C@H](Cc1c[nH]cn1)NC(=O)[C@H](CCCNC(=N)N)NC(=O)[C@H](CC(C)C)NC(=O)[C@H](Cc1ccccc1)NC(=O)[C@H](CC(N)=O)NC(=O)[C@H](C)NC(=O)[C@H](CC(C)C)NC(=O)[C@H](CCCNC(=N)N)NC(=O)[C@H](CCC(N)=O)NC(=O)[C@@H](NC(=O)[C@H](C)NC(=O)[C@@H]1CSSC[C@H](NC(=O)[C@@H](N)CCCCNC(=O)COCCOCCNC(=O)CC[C@H](NC(=O)CCCCCCCCCCCCCCCCCCC(=O)O)C(=O)O)C(=O)N[C@@H](CC(N)=O)C(=O)N[C@@H]([C@@H](C)O)C(=O)N[C@@H](C)C(=O)N[C@@H]([C@@H](C)O)C(=O)N1)[C@@H](C)O)C(=O)N1CCC[C@H]1C(=O)N[C@@H](CO)C(=O)N[C@@H](CO)C(=O)N[C@H](C(=O)N[C@@H](CC(N)=O)C(=O)N[C@H](C(=O)NCC(=O)N[C@@H](CO)C(=O)N[C@@H](CCC(=O)O)C(=O)N[C@H](C(=O)N[C@@H](Cc1ccc(O)cc1)C(N)=O)[C@@H](C)O)C(C)C)[C@@H](C)O, also called compound 26)"

# Source: patent US20140087995A1 (published 2014)
